The values below come from publication PMC6881253 (2019).

The chains are these.
B1: D1.2, mutant variant of p21^140–157 (Ac-SESSQTSMTDFYHSESSL-NH2) (peptide)
chain: Ac-SESSQTSMTDFYHSESSL-NH2
B2: S1, mutant variant of p21^140–157 (Ac-SESSQTSMTDFYHSKRRL-NH2) (peptide)
chain: Ac-SESSQTSMTDFYHSKRRL-NH2
B3: S2, mutant variant of p21^140–157 (Ac-RKRRQTSMTDFYHSESSL-NH2) (peptide)
chain: Ac-RKRRQTSMTDFYHSESSL-NH2

For the test, the target named is N-terminally His6-tagged human PCNA (proliferating cell nuclear antigen) (human, UniProt P12004 1-261). Kind of test: ITC.
Sequence of N-terminally His6-tagged human PCNA (proliferating cell nuclear antigen) (P12004 whole entry): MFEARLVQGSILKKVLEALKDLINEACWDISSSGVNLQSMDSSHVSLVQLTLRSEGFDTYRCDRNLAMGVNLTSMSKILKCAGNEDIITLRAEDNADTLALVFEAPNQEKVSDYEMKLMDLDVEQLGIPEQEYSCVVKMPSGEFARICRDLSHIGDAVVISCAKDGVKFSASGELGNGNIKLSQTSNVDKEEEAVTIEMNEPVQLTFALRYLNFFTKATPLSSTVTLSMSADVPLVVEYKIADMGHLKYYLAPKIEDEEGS
For the molecule B1, binding was put at a Kd of 40 µM.

Molecule B2 came in with a Kd of 8.3 µM.

For the molecule B3, the Kd is 0.3 µM.
